Legend:
PANC-1 xenograft = PANC-1 xenograft model, alone and with gemcitabine; format: in vivo, C.B-17/IcrHsd-Prkdc scid Lyst bg mice; conditions: gemcitabine alone 60 mg/kg i.p. q3dx5
Protocol: A disease model of pancreatic cancer was established by implanting 5×10^6 PANC-1 cells in 100 μL DMEM into the left flank of 7 week old female C.B-17/IcrHsd-Prkdc^scidLyst^bg mice. Mice were then treated with M53-PEG24-CEN09-106 with a drug loading of 8 and/or gemcitabine when the tumor size in groups of 3 animals averaged ˜500 mm^3. Treatments consisted of either vehicle control, M53-PEG24-CEN09-106 at 0.2, 1 and 5 mg/kg, with and without 60 mg/kg gemcitabine or 60 mg/kg gemcitabine alone and consisted of multiple injections using the M53-PEG24-CEN09-106 schedule of one injection every 7 days for 3 injections (q7d×3) administered i.v. and the gemcitabine schedule of one injection every 3 days for 5 injections (q3d×5) administered i.p. Tumor volumes were measured for each group using calibrated vernier calipers and plotted against first day of tumor implant for 28 days post-initial dose, graphed and shown in FIG. 6.

A549 xenografts = assay: Second A549 xenograft study (tumor fragments); format: in vivo, female HRLN nu/nu mice
Protocol: Briefly, to establish a non-small-cell lung cancer disease model, subcutaneous A549 xenografts were initiated in female HRLN nu/nu mice by implanting 8 mm^3 A549 tumor fragments subcutaneously into the left flank. Tumor growth was monitored, and mice bearing tumors of 60-180 mm^3 were selected for the study. Tumor-bearing mice (n=7 mice/group) with a group average tumor volume of approximately 110 mm^3 were treated i.p. with 5 mgs/kg M53-PEG24-CEN09-106 at q3d×4, 20 mg/kg scillarenin-4-amino-deoxy-L-xylopryanoside (an intermediate in the construction of M53-PEG24-CEN09-106 and known cytotoxin) at q2dx5, and 15 mg/kg paclitaxel at q1d×5. Tumor volumes were measured for each group using calibrated vernier calipers plotted against day of first dose for 100 days to produce the graph shown in FIG. 4.
Paclitaxel at its optimum dosing produced 80% growth inhibition of the tumor when compared to vehicle.

human dysadherin [1] = target: T1, human dysadherin (human, UniProt Q96DB9 22-178); assay: cell-based or functional assay
T1 chain: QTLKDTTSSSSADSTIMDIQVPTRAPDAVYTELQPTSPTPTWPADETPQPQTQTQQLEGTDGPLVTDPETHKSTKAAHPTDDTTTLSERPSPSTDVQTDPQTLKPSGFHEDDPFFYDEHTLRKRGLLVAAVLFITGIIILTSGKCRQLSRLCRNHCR

human dysadherin [2] = target: T1, human dysadherin; assay: cell-based or functional assay

## Nc1ccn([C@@H]2O[C@H](CO)[C@@H](O)C2(F)F)c(=O)n1 [Gemcitabine, reference compound]
PANC-1 xenograft
  growth inhibition of the tumor compared to vehicle: 68%

## C[C@]12CC[C@H](OC3OC[C@H](N)[C@@H](O)[C@@H]3O)C=C1CCC1C2CC[C@]2(C)[C@@H](c3ccc(=O)oc3)CC[C@]12O (stereo partly drawn) [Scillarenin-4-amino-4-deoxy-L-xylopyranoside]
A549 xenografts; 100 days post-initial dose, EDC (loading 3) 5 mg/kg i.p. q3dx4, scillarenin aminoxyloside 20 mg/kg q2dx5, paclitaxel 15 mg/kg q1dx5
  growth inhibition of the tumor compared to vehicle: 60%
A549 xenografts; same dosing as efficacy arms, second A549 xenograft study
  weight loss: 8%

B1: scFv-PEG24-CEN09-106 (scFv)
scFv: ECQLVESGGGLVQPKGTLKLSCAASGFSFNTHAMNWVRQAPGKSLEWVARTMSKSNNYATYYADSVKDRFIISRDDSQSMLYLQMNNLKTEDTAMYYCVRDDPKRGMDYWGQGTSVTVSSGGGGSGGGGSGGGGSGIVMSQSPSSLAVSVGEKVTMSCKPSQSLLYSRNQKIYLAWYQQKPGQSPKLLIYWASTRESGVPDRFTGSGSGTDFTLIISSVRAEDLAVYYCQQYYNYPLTFGAGTKLELK
modifications: PEG24-CEN09-106 (scillarenin linker-drug) on the unpaired cysteine (position 23 of SEQ ID NO: 30)
Human dysadherin [1]
  EC50, in vitro activity against A549 cells: 1.6 nM

B2: M53-PEG24-CEN10-110 (antibody, V domains shown)
VH: EVQLVESGGGLVQPKGTLKLSCAASGFSFNTHAMNWVRQAPGKSLEWVARTMSKSNNYATYYADSVKDRFIIRADDSQSMLYLQMNNLKTEDTAMYYCVRDDPKRGMDYWGQGTSVTVSS
VL: GIVMSQSPSSLAVSVGEKVTMSCKPSQSLLYSRNQKIYLAWYQQKPGQSPKLLIYWASTRESGVPDRFTGSGSGTDFTLIISSVRAEDLAVYYCQQYYNYPLTFGAGTKLELKR
modifications: PEG24-CEN10-110 on reduced cysteine thiols; positions not given; PEG24-CEN10-110 (scillarenin linker-drug with lysine in the linker) on reduced cysteine thiols; positions not given
Human dysadherin [2]
  EC50, cytotoxicity (CellTiter-Glo cell viability), A375 cells: 0.5 nM
  EC50, cytotoxicity (CellTiter-Glo cell viability), A549 cells: 0.1 nM
  EC50, cytotoxicity (CellTiter-Glo cell viability), H460 cells: 0.2 nM

B3: cM53-PEG24-CEN09-106 (antibody, human IgG1, kappa, V domains shown)
VH: ECQLVESGGGLVQPKGTLKLSCAASGFSFNTHAMNWVRQAPGKSLEWVARTMSKSNNYATYYADSVKDRFIISRDDSQSMLYLQMNNLKTEDTAMYYCVRDDPKRGMDYWGQGTSVTVSS
VL: GIVMSQSPSSLAVSVGEKVTMSCKPSQSLLYSRNQKIYLAWYQQKPGQSPKLLIYWASTRESGVPDRFTGSGSGTDFTLIISSVRAEDLAVYYCQQYYNYPLTFGAGTKLELKR
modifications: PEG24-CEN09-106 on cysteine thiols; positions not stated (cysteine in place of valine at position 2 of SEQ ID NO: 23)
Human dysadherin [1]
  EC50, in vitro activity against A549 cells: 2 nM

B4: M53-PEG24-CEN09-107 (antibody, V domains shown)
VH: EVQLVESGGGLVQPKGTLKLSCAASGFSFNTHAMNWVRQAPGKSLEWVARTMSKSNNYATYYADSVKDRFIIRADDSQSMLYLQMNNLKTEDTAMYYCVRDDPKRGMDYWGQGTSVTVSS
VL: GIVMSQSPSSLAVSVGEKVTMSCKPSQSLLYSRNQKIYLAWYQQKPGQSPKLLIYWASTRESGVPDRFTGSGSGTDFTLIISSVRAEDLAVYYCQQYYNYPLTFGAGTKLELKR
modifications: PEG24-CEN09-107 on reduced cysteine thiols; positions not given; PEG24-CEN09-107 (scillarenin 4-amino-riboside PEG24 maleimide linker-drug) on reduced cysteine thiols; positions not given
Human dysadherin [2]
  EC50, cytotoxicity (CellTiter-Glo cell viability), A375 cells: 2.6 nM
  EC50, cytotoxicity (CellTiter-Glo cell viability), A549 cells: 0.5 nM

B5: M53-PEG24-CEN-319 (antibody, V domains shown)
VH: EVQLVESGGGLVQPKGTLKLSCAASGFSFNTHAMNWVRQAPGKSLEWVARTMSKSNNYATYYADSVKDRFIIRADDSQSMLYLQMNNLKTEDTAMYYCVRDDPKRGMDYWGQGTSVTVSS
VL: GIVMSQSPSSLAVSVGEKVTMSCKPSQSLLYSRNQKIYLAWYQQKPGQSPKLLIYWASTRESGVPDRFTGSGSGTDFTLIISSVRAEDLAVYYCQQYYNYPLTFGAGTKLELKR
modifications: PEG24-CEN-319 on reduced cysteine thiols; positions not given; PEG24-CEN-319 (digitoxigenin 4-amino-xyloside PEG24 maleimide linker-drug) on reduced cysteine thiols; positions not given
Human dysadherin [2]
  EC50, cytotoxicity (CellTiter-Glo cell viability), A549 cells: 1.6 nM
  EC50, cytotoxicity (CellTiter-Glo cell viability), H929 cells: > 200 nM
  EC50, cytotoxicity (CellTiter-Glo cell viability), PANC cells: > 200 nM

Reference: patent US20140079722A1, “EXTRACELLULAR TARGETED DRUG CONJUGATES” (CENTROSE, LLC, priority 2011, published 2014)
